{
  "source": "patent US20200010567A1",
  "about": "(NEURIMMUNE, published 2020)",
  "binders": {"B1": {"name": "NI-308.24E11 (antibody, V domains shown)", "VH": "QVQLQESGPGLVKPSETLSLTCTVSTTSLRSYFWSWIRQPPGKGLEWIGYVYYSGSTIYNPSLKNRVTISIDTSKNQFSLNLRSVTAADTAMYFCARGVPAETDARDFPPYYFDHWGQGTLVTVSS", "VL": "CDIQLTQSPSSLSASVGNRITFTCQASQDIRYYLNWYQQKPGKAPKLLIYDVSNLDTGVPPRFSGSGSGTNFTFTISSLQPEDIAVYYCQQYEGLPVTFGGGTKVEIK", "notes": "Recombinant complete human IgG1, kappa"}, "B2": {"name": "NI-308.6B11 (antibody, V domains shown)", "VH": "EVQLVQSGAEVKRPGASVKVSCKVSGYTLTELSMHWVRQAPGKGLEWMGGFDPEDGETVYAQKFQGRVTMTEDTSTDTAYMELSSLRSEDTALYHCATYGSSWHWNEGNEGSYYFDYWGQGTLVTVSS", "VL": "CDIQMTQSPSSLSASVGDRVTITCQASQDISIYLNWYQQKPGKAPKLLIYDASNLETGVPSRFSGSGSGTDFTFTISGLQPEDVARYYCQQYDDLPITFGQGTRLEIK", "notes": "as for B1"}, "B3": {"name": "NI-308.18F7 (antibody, V domains shown)", "VH": "QVQLQESGPGLVKPSETLSVTCTVSGGSINDYYWNWIRQPAGKGLEWIGRIYASGTINYNPSLQSRVTMSIDTSKNQFSLDLISVSAADTAVYYCARWGQVVGDYYYGMDVWGQGTTVTVSS", "VL": "EIVLTQSPLSLSVTPGEPASISCKSSQSLQHTNGYNYLDWYLLKPGQSPQLLIFLTSNRASGVPDRFSGSGSGTNFTLKISRVEAEDVGVYYCMEGIQLWTFGQGTKLEIK", "notes": "as for B1"}, "B4": {"name": "NI-308.46E9 (antibody, V domains shown)", "VH": "QVQLQESGPGLVKPSETLSLTCTVSGASISGSTYYWGWIRQPPGKGLEYIGRIYYSGSTYYNPSLKSRATISVDTSKNQLSLTLSSVTAADTAVYYCVRPFYAGSGNSPFDYWGQGTLVTVSS", "VL": "CEIVLTQSPATVSVSPGERATLSCRASQSVSTNLAWYQQKPGQPPRLLIYGASTRATGIPARFSGSGSGAEFTLTISSLQSEDFVVYYCQQYNNWPPAFGGGTKVEIK", "notes": "as for B1"}, "B5": {"name": "NI-308.5G2 (antibody, V domains shown)", "VH": "EVQLVQSGADLRNPGASVTVSCTASGYHFADNAINWLRQAPGQRLEWMGWINIYSGNTKYSQNFQGRVTFTRNTSASTAFMHLRSLRSEDTAVYFCARDPDSSGYYLPYFDYWGQGTLVTVSS", "VL": "DIQLTQSPDSLTLSLGERATINCKSSQSVFYNSNNKNYLAWYQQKPGQPPKLLMYWASTRESGVTDRFSGSGSGTDFTLTITNLQAEDVAVYYCQQFYSSPLTFGGGTKVEIK", "notes": "as for B1"}},
  "key": {"[1]": {"target": "T1, BSA-coupled (PR)15 DPR protein peptide (bovine, conjugated via a bifunctional linker (SMCC) to bovine serum albumin)", "T1 construct": "also called BSA-(PR)15", "T1 sequence (peptide, as listed by the source limits assumed, chain 1 of 2)": "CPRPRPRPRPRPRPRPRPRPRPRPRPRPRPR", "T1 sequence (P02769 25-607 limits assumed, chain 2 of 2)": "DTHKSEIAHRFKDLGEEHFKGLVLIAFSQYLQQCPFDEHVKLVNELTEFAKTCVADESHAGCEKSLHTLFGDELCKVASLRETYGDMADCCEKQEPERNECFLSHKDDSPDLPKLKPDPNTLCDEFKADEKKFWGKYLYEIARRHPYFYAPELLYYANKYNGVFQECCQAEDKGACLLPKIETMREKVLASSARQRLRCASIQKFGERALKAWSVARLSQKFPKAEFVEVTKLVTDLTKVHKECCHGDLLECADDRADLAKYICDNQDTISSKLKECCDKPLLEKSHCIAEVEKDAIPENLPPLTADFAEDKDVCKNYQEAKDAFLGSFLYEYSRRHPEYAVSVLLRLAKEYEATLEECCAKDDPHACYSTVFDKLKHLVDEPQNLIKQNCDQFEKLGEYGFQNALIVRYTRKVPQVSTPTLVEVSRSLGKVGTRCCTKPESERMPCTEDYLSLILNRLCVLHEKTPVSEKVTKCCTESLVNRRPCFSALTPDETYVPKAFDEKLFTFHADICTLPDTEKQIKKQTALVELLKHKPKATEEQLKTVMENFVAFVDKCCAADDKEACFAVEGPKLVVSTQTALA", "experiment": "indirect ELISA, BSA-coupled peptide coated, antibody titrated [also D00013 FIG. 3F]", "experimental": "(§1) In brief, dipeptide repeat proteins were synthesized and purified by Schafer-N(Copenhagen, Denmark): (GA)₁₅: H-CHHHHHH(GA)₁₅-OH; (GP)₁₅: H-C(GP)₁₅-OH; (GR)₁₅: H-C(GR)₁₅-OH; (PA)₁₅: H-C(PA)₁₅-OH; (PR)₁₅: H—C(PR)₁₅-OH. DPR protein peptides were then conjugated via a bifunctional linker (SMCC) to bovine serum albumin (BSA). 96-well microplates (Corning Incorporated, Corning, USA) were coated with BSA-coupled or -uncoupled dipeptide repeat protein peptides at a concentration of either 5 μg/ml or 20 μg/ml in coating buffer (15 mM Na₂CO₃, 35 mM NaHCO₃, pH 9.42). Non-specific binding sites were blocked for 1 h at room temperature with PBS/0.1% Tween®-20 containing 2% BSA (Sigma-Aldrich, Buchs, Switzerland). Primary antibodies were diluted to the indicated concentrations and incubated 1 h at room temperature, followed by incubation with a donkey anti-human IgG Fcγ-specific antibody conjugated with HRP (Jackson ImmunoResearch Laboratories, Inc., West Grove, USA). Binding was determined by measurement of HRP activity in a standard colorimetric assay. EC₅₀ values were estimated by non-linear regression using GraphPad Prism software (San Diego, USA)."}, "GR10: H-(GR)10HHHHHH-NH2": {"target": "T2, GR10: H-(GR)10HHHHHH-NH2 (C-terminal amide)", "T2 peptide": "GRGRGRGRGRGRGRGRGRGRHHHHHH", "experiment": "indirect ELISA, His-tagged peptide coated at 50 ug/ml, antibody titrated", "experimental": "as §1, with “96-well” for “In brief, dipeptide repeat proteins were synthesized and purified by Schafer-N(Copenhagen, Denmark): (GA)₁₅: H-CHHHHHH(GA)₁₅-OH; (GP)₁₅: H-C(GP)₁₅-OH; (GR)₁₅: H-C(GR)₁₅-OH; (PA)₁₅: H-C(PA)₁₅-OH; (PR)₁₅: H—C(PR)₁₅-OH. DPR protein peptides were then conjugated via a bifunctional linker (SMCC) to bovine serum albumin (BSA). 96-well”, “with” for “with BSA-coupled or -uncoupled”, “50” for “either 5 μg/ml or 20”\n(§2) High affinity binding was detected for poly-GA DPRs harboring 10 or 20 (GA)-repeats, reflected in an EC₅₀ in the subnanomolar or low nanomolar range (FIGS. 7A, 7C-7I)."}, "[2]": {"target": "T3, (GA)15: H-CHHHHHH(GA)15-OH", "T3 construct": "synthetic, not coupled to BSA; also called poly-GA DPR protein peptide", "T3 peptide": "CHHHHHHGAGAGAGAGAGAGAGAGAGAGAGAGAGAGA", "experiment": "indirect ELISA, uncoupled peptide coated, antibody titrated [also D00012 FIG. 3B]", "experimental": "as §1"}, "GP6: H-(GP)6HHHHHH-NH2": {"target": "T4, GP6: H-(GP)6HHHHHH-NH2", "T4 peptide": "H-GPGPGPGPGPGPHHHHHH-NH2", "experiment": "indirect ELISA, His-tagged peptide coated at 50 ug/ml, antibody titrated", "experimental": "as §1, with “96-well” for “In brief, dipeptide repeat proteins were synthesized and purified by Schafer-N(Copenhagen, Denmark): (GA)₁₅: H-CHHHHHH(GA)₁₅-OH; (GP)₁₅: H-C(GP)₁₅-OH; (GR)₁₅: H-C(GR)₁₅-OH; (PA)₁₅: H-C(PA)₁₅-OH; (PR)₁₅: H—C(PR)₁₅-OH. DPR protein peptides were then conjugated via a bifunctional linker (SMCC) to bovine serum albumin (BSA). 96-well”, “with” for “with BSA-coupled or -uncoupled”, “50” for “either 5 μg/ml or 20”\nas §2"}, "(GP)15: H-C(GP)15-OH": {"target": "T5, (GP)15: H-C(GP)15-OH", "T5 construct": "synthetic, not coupled to BSA; also called poly-GP DPR protein peptide", "T5 peptide": "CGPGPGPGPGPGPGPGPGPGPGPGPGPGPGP", "experiment": "indirect ELISA, uncoupled peptide coated, antibody titrated [also D00014 FIG. 3G]", "experimental": "as §1"}, "GA5: H-(GA)5HHHHHH-NH2": {"target": "T6, GA5: H-(GA)5HHHHHH-NH2", "T6 peptide": "H-GAGAGAGAGAHHHHHH-NH2", "experiment": "indirect ELISA, His-tagged peptide coated at 50 ug/ml, antibody titrated [also D00026 FIG. 7K]", "experimental": "as §1, with “96-well” for “In brief, dipeptide repeat proteins were synthesized and purified by Schafer-N(Copenhagen, Denmark): (GA)₁₅: H-CHHHHHH(GA)₁₅-OH; (GP)₁₅: H-C(GP)₁₅-OH; (GR)₁₅: H-C(GR)₁₅-OH; (PA)₁₅: H-C(PA)₁₅-OH; (PR)₁₅: H—C(PR)₁₅-OH. DPR protein peptides were then conjugated via a bifunctional linker (SMCC) to bovine serum albumin (BSA). 96-well”, “with” for “with BSA-coupled or -uncoupled”, “50” for “either 5 μg/ml or 20”\nas §2"}, "GA2: H-(GA)2HHHHHH-NH2": {"target": "T7, GA2: H-(GA)2HHHHHH-NH2", "T7 peptide": "H-GAGAHHHHHH-NH2", "experiment": "indirect ELISA, His-tagged peptide coated at 50 ug/ml, antibody titrated [also D00026 FIG. 7K]", "experimental": "as §1, with “96-well” for “In brief, dipeptide repeat proteins were synthesized and purified by Schafer-N(Copenhagen, Denmark): (GA)₁₅: H-CHHHHHH(GA)₁₅-OH; (GP)₁₅: H-C(GP)₁₅-OH; (GR)₁₅: H-C(GR)₁₅-OH; (PA)₁₅: H-C(PA)₁₅-OH; (PR)₁₅: H—C(PR)₁₅-OH. DPR protein peptides were then conjugated via a bifunctional linker (SMCC) to bovine serum albumin (BSA). 96-well”, “with” for “with BSA-coupled or -uncoupled”, “50” for “either 5 μg/ml or 20”\nas §2"}, "GA4: H-(GA)4HHHHHH-NH2": {"target": "T8, GA4: H-(GA)4HHHHHH-NH2", "T8 peptide": "H-GAGAGAGAHHHHHH-NH2", "experiment": "indirect ELISA, His-tagged peptide coated at 50 ug/ml, antibody titrated [also D00026 FIG. 7K]", "experimental": "as §1, with “96-well” for “In brief, dipeptide repeat proteins were synthesized and purified by Schafer-N(Copenhagen, Denmark): (GA)₁₅: H-CHHHHHH(GA)₁₅-OH; (GP)₁₅: H-C(GP)₁₅-OH; (GR)₁₅: H-C(GR)₁₅-OH; (PA)₁₅: H-C(PA)₁₅-OH; (PR)₁₅: H—C(PR)₁₅-OH. DPR protein peptides were then conjugated via a bifunctional linker (SMCC) to bovine serum albumin (BSA). 96-well”, “with” for “with BSA-coupled or -uncoupled”, “50” for “either 5 μg/ml or 20”\nas §2"}, "GA3: H-(GA)3HHHHHH-NH2": {"target": "T9, GA3: H-(GA)3HHHHHH-NH2", "T9 peptide": "H-GAGAGAHHHHHH-NH2", "experiment": "indirect ELISA, His-tagged peptide coated at 50 ug/ml, antibody titrated [also D00026 FIG. 7K]", "experimental": "as §1, with “96-well” for “In brief, dipeptide repeat proteins were synthesized and purified by Schafer-N(Copenhagen, Denmark): (GA)₁₅: H-CHHHHHH(GA)₁₅-OH; (GP)₁₅: H-C(GP)₁₅-OH; (GR)₁₅: H-C(GR)₁₅-OH; (PA)₁₅: H-C(PA)₁₅-OH; (PR)₁₅: H—C(PR)₁₅-OH. DPR protein peptides were then conjugated via a bifunctional linker (SMCC) to bovine serum albumin (BSA). 96-well”, “with” for “with BSA-coupled or -uncoupled”, “50” for “either 5 μg/ml or 20”\nas §2"}},
  "data": [
    {"binder": "B1", "values": [
      {"measurement": "EC50", "setting": "[1]", "result": "> 200", "unit": "nM"}
    ]},
    {"binder": "B2", "values": [
      {"measurement": "EC50", "setting": "GR10: H-(GR)10HHHHHH-NH2", "result": 1.28, "unit": "nM"}
    ]},
    {"binder": "B3", "values": [
      {"measurement": "EC50", "setting": "[2]", "result": 0.34, "unit": "nM"}
    ]},
    {"binder": "B4", "values": [
      {"measurement": "EC50", "setting": "GP6: H-(GP)6HHHHHH-NH2", "result": "> 200", "unit": "nM"}
    ]},
    {"binder": "B5", "values": [
      {"measurement": "EC50", "setting": "(GP)15: H-C(GP)15-OH", "result": 0.4, "unit": "nM"},
      {"measurement": "binding result", "setting": "GA5: H-(GA)5HHHHHH-NH2", "result": "no binding (tested: about 4x10^5 pM (last point))"},
      {"measurement": "binding result", "setting": "GA2: H-(GA)2HHHHHH-NH2", "result": "no binding (tested: about 4x10^5 pM (last point))"},
      {"measurement": "binding result", "setting": "GA4: H-(GA)4HHHHHH-NH2", "result": "no binding (tested: about 4x10^5 pM (last point))"},
      {"measurement": "binding result", "setting": "GA3: H-(GA)3HHHHHH-NH2", "result": "no binding (tested: about 4x10^5 pM (last point))"}
    ]}
  ]
}
